In patent US20180221438A1, “MODULATING URACIL-DNA GLYCOSYLASE AND USES THEREOF” (Adaerata Limited Partnership, priority 2015, published 2018):

What was measured:
CH12F3 cells [1] = test: FISH of metaphase chromosomes for sister telomere loss (STL) in CH12F3 cells; assay type: cell-based, mouse
Protocol: (§1) B cell lymphoma cells, CH12F3-2 cells, were cultured in RPMI medium supplemented with 10% FBS, 0.05% 2- mercaptoethanol and 5% NCTC 109 (Sigma). CH12F3-2 cells stably expressing Ugi were obtained by retroviral delivery using pMIG vector as described before ^39. Class switching induction to IgA in CH12F3-2 cells was performed as previously published ^39. CSR to IgA in CH12F3-2 cells was determined with an Accuri C6™ Flow Cytometer (BD Biosciences). Mouse B cells were purified from freshly isolated splenocytes using anti-CD43 magnetic beads as described ^70. CSR was induced using 5 ? g/ml LPS (Sigma) and 20 ng/ml IL-4 (Preprotech). Cells were harvested for ChIP or metaphase spreads and FISH at 24 h post stimulation.
For metaphase analysis cells were incubated with 50 ng/ml colcemide in cell culture media for 3 hours, harvested by trypsinization, incubated for 10 min at RT in 75 mM KCl, and fixed in freshly prepared methanol:glacial acetic acid (3:1 v/v). Cells were stored at 4° C. and when needed dropped onto wet slides and air-dried. For FISH analysis of the metaphases the cells were pre-treated with 0.05% w/v pepsin in 10 mM HCl during 10 minutes at 37° C. […] Finally, the samples were analyzed as described above. […]

CH12F3 cells [2] = test: Terminal restriction fragment (TRF) analysis of telomeric DNA in CH12F3 cells; assay type: cell-based, mouse; settings: CH12F3 Ugi cells
CH12F3 cells [3] = test: ChIP for DNA damage marker at the telomeres; assay type: cell-based, mouse; settings: CH12F3 Ugi vs CH12F3 GFP
Protocol: ChIPs to evaluate interaction with the telomeric chromatin or the Ig locus were performed as described previously ^39,61. Briefly, cells were cross-linked with 1% formaldehyde for 20 min at room temperature and reaction was stopped by addition of glycine to 125 mM final concentration. Cells were washed twice with cold PBS, harvested and kept at −80° C. O.N. Samples were resuspended in RIPA buffer (150 mM NaCl, 1% [v/v] Igepal CA-630, 0.5% [w/v] Sodium Deoxycholate, 0.1% [w/v] SDS, 50 mM Tris-HCl at pH 8, 5 mM EDTA, protease and phosphatase inhibitors) and sonicated to generate DNA fragments <500 bp using a Bioruptor™ Next Gen (Diagenode).
In order to increase the sensitivity of the ChIP assays and evaluate the presence of AID at the telomeres we performed the immunoprecipitations with fractions enriched in crosslinked chromatin. For this goal B cells fixed with 1% formaldehyde as described above were resuspended in RIPA buffer, sonicated during 90 seconds using a Bioruptor™ Next Gen (Diagenode), and the lysates were then spun down briefly (2000g, for 5 min at 4 C) to remove debris. […] Samples were then clarified by centrifugation at 20,000 RPM (4° C.) and their protein content was measured using the BCA method (Biorad). […]

CH12F3 cells [4] = test: Anaphase bridges by DAPI staining in CH12F3 cells expressing E6 and E7; assay type: cell-based, mouse; settings: CH12F3 Ugi with E6 and E7, vs CH12F3 Ugi shAID and control GFP cells
From the text: Anaphase cells were visualized by DAPI staining of cells fixed with 2% paraformaldehyde in 1X PBS and attached to slides pre-treated with poly-lysine and analyzed as described previously ^33.

CH12F3 cells [5] = test: Proliferation of CH12F3 cells after CSR stimulation (cell number, CFSE dilution); assay type: cell-based, mouse; settings: CH12F3 Ugi cells stimulated for CSR; prevented by AID knockdown
Protocol: as §1

E. coli UNG = E. coli UNG (Escherichia coli, UniProt P12295); settings: cited from earlier work
E. coli UNG, sequence (P12295 whole entry): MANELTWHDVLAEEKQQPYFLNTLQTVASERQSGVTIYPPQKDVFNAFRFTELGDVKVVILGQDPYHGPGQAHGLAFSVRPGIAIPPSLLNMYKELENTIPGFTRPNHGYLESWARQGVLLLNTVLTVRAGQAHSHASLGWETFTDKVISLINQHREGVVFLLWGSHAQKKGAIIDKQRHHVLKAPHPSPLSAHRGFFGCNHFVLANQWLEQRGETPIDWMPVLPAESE

B1: Ugi: Uracil Glycosylase Inhibitor of Bacillus subtilis bacteriophage PBS1/PBS2, small protein (9.5 kDa), SEQ ID NO: 29; expressed in cells by retroviral delivery (protein)
chain: MTNLSDIIEKETGKQLVIQESILMLPEEVEEVIGNKPESDILVHTAYDESTDENVMLLTSDAPEYKPWALVIQDSNGENKIKML
modifications: bacillus subtilis
notes: expressed in cells by retroviral delivery
Which results are given for B1?
STL (CH12F3 cells [1]; CH12F3 Ugi cells expressing human AID, without inducing class switching, vs CH12F3 GFP): significant increase in STL; metaphase chromosomes with STL (CH12F3 cells [1]; activated CH12F3 cells expressing Ugi vs CH12F3 cells expressing GFP alone): significant increase in metaphase chromosomes with STL; intra-telomeric G-rich single-stranded DNA (CH12F3 cells [2]; DNA treated with exonuclease before TRF analysis): MSH2-dependent increase in intra-telomeric G-rich single-stranded DNA; telomere G-rich 3′ overhang signal (CH12F3 cells [2]; terminal restriction fragment analysis): normal telomere G-rich 3′ overhang signal; phospho-ser129-H2AX at the telomeres (CH12F3 cells [3]): AID-dependent accumulation of phospho-ser129-H2AX; anaphase bridges (CH12F3 cells [4]): significantly accumulated anaphase bridges; growth (total cell number or CFSE dilution assay) (CH12F3 cells [5]): reduced growth; inhibition of UNG (E. coli UNG): inhibits E. coli UNG as well as UNG from other species
